US20230087378A1 (UCB, published 2023)
Residue numbers refer to the chain shown, from its start. Values joined by “and” are separate entries in the source; they are usually repeats but may differ in a detail not shown here. Identical values can stand only once.

Legend:
[1] = biological target: mixture of cynomolgus IL-17A, IL-13 and albumin (cynomolgus); assay: SPR, response of the cynomolgus mixture against the sum of the single-analyte responses, mean of n = 3
[2] = biological target: T1, Cyno IL-17A (cynomolgus, UniProt A0A2K5TTB0 24-155); assay: SPR (Biacore T200), antibody captured on anti-human F(ab')2, analyte in solution, 25 C, 1:1 model
T1 construct: also called Cynomolgus IL-17A
Description: (§1) A goat anti-human IgG, F(ab′)₂ fragment specific antibody (Jackson ImmunoResearch) was immobilised on a CM5 Sensor Chip via amine coupling chemistry to a level of approximately 5000 RU. […] Buffer blank injections were included to subtract instrument noise and drift.

[3] = biological target: T2, Human IL-17AF (human, UniProt Q16552 24-155; Q96PD4 31-163); assay: as above
T2 construct: also called IL-17A/F heterodimer
Description: as §1

[4] = biological target: T3, Cyno IL-17F (cynomolgus, UniProt G7P4V0 31-163); assay: as above
T3 construct: also called Cynomolgus IL-17F
T3 sequence: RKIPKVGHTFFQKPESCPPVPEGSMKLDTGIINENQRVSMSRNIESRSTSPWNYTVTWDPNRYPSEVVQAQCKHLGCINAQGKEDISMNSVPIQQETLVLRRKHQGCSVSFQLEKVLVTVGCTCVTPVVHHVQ
Description: as §1

[5] = biological target: T4, Cyno albumin (cynomolgus, UniProt A2V9Z4 25-608); assay: as above
T4 construct: also called Cynomolgus albumin
Description: as §1

[6] = biological target: T5, Cyno IL-17AF (cynomolgus, UniProt A0A2K5TTB0 24-155; G7P4V0 31-163); assay: as above
T5 construct: also called Cynomolgus IL-17AF
Description: as §1

[7] = biological target: T6, Human albumin (human, UniProt P02768 25-609); assay: as above
T6 construct: also called human serum albumin
Description: as §1

[8] = biological target: T7, Human IL-17A (human, UniProt Q16552 24-155); assay: as above
Description: as §1

[9] = biological target: T8, Cyno IL-13 (cynomolgus, UniProt Q0PW92 21-132); assay: as above
T8 construct: also called Cynomolgus IL-13
Description: as §1

[10] = biological target: T9, Human IL-17F (human, UniProt Q96PD4 31-163); assay: as above
T9 sequence (looked up): T3 sequence with E22G, T29I, K73R, H74N, L100V, V129I
Description: as §1

[11] = biological target: T10, Human IL-13 (human, UniProt P35225 35-146); assay: as above
T10 construct: also called hIL-13
Description: as §1

[12] = biological target: T10, Human IL-13; assay: SPR (Biacore T200), antibody captured on anti-human F(ab')2, human IL-13 as analyte, 25 C, 1:1 model
Procedure: (§2) A goat anti-human IgG, F(ab′)₂ fragment specific antibody (Jackson ImmunoResearch) was immobilised on a CM5 Sensor Chip via amine coupling chemistry to a level of approximately 5000 RU. […] At the end of each cycle the surface was regenerated at a flowrate of 10 μl/min using a 60 s injection of 50 mM HCl followed by a 30 s injection of 5 mM NaOH and a final 60 s injection of 50 mM HCl. […] Buffer blank injections were included to subtract instrument noise and drift.
(§3) Kinetic parameters were determined using a 1:1 binding model using Biacore T200 Evaluation software (version 3.0).

[13] = biological target: T1, Cyno IL-17A; assay: cell-based or functional assay
[14] = biological target: T3, Cyno IL-17F; assay: cell-based or functional assay
[15] = biological target: T7, Human IL-17A; assay: cell-based or functional assay
[16] = biological target: T9, Human IL-17F; assay: cell-based or functional assay
[17] = biological target: T7, Human IL-17A; assay: SPR (Biacore T200), antibody captured on anti-human F(ab')2, human IL-17A as analyte, 25 C, 1:1 model
Procedure: as §2, §3

[18] = biological target: mixture of cynomolgus IL-17A, IL-13 and albumin (cynomolgus); assay: SPR, mixture of cynomolgus IL-13, IL-17A and albumin injected together over captured antibody
[19] = biological target: mixture of cynomolgus IL-17A, IL-13 and albumin (cynomolgus); assay: SPR, response of the cynomolgus mixture against the sum of the single-analyte responses
[20] = biological target: T9, Human IL-17F; assay: SPR (Biacore T200), antibody captured on anti-human F(ab')2, human IL-17F as analyte, 25 C, 1:1 model
Procedure: as §2, §3

[21] = biological target: T10, Human IL-13; assay: cell-based or functional assay
[22] = biological target: mixture of human IL-17A, IL-13 and albumin (human); assay: SPR, response of the human mixture against the sum of the single-analyte responses, mean of n = 3
[23] = biological target: mixture of human IL-17A, IL-13 and albumin (human); assay: SPR, mixture of human IL-13, IL-17A and albumin injected together over captured antibody
[24] = biological target: T7, Human IL-17A; assay: cell-based or functional assay; remark: listed apart in the source
[25] = biological target: T9, Human IL-17F; assay: cell-based or functional assay; remark: listed apart in the source
[26] = biological target: T10, Human IL-13; assay: cell-based or functional assay; remark: listed apart in the source
[27] = biological target: mixture of human IL-17A, IL-13 and albumin (human); assay: SPR, response of the human mixture against the sum of the single-analyte responses

B1: IL-13/IL-17AF multi-specific antibody (bispecific antibody)
heavy: EVQLVESGGGLVQPGGSLRLSCAASGFTFSDYNMAWVRQAPGKGLEWVATITYEGRNTYYRDSVKGRFTISRDNAKNSLYLQMNSLRAEDTAVYYCASPPQYYEGSIYRLWFAHWGQGTLVTVSSASTKGPSVFPLAPSSKSTSGGTAALGCLVKDYFPEPVTVSWNSGALTSGVHTFPAVLQSSGLYSLSSVVTVPSSSLGTQTYICNVNHKPSNTKVDKKVEPKSCSGGGGTGGGGSEVQLLESGGGLVQPGGSLRLSCAVSGIDLSNYAINWVRQAPGKCLEWIGIIWASGTTFYATWAKGRFTISRDNSKNTVYLQMNSLRAEDTAVYYCARTVPGYSTAPYFDLWGQGTLVTVSSGGGGSGGGGSGGGGSGGGGSDIQMTQSPSSVSASVGDRVTITCQSSPSVWSNFLSWYQQKPGKAPKLLIYEASKLTSGVPSRFSGSGSGTDFTLTISSLQPEDFATYYCGGGYSSISDTTFGCGTKVEIKRT
light: AIQLTQSPSSLSASVGDRVTITCRADESVRTLMHWYQQKPGKAPKLLIYLVSNSEIGVPDRFSGSGSGTDFRLTISSLQPEDFATYYCQQTWSDPWTFGQGTKVEIKRTVAAPSVFIFPPSDEQLKSGTASVVCLLNNFYPREAKVQWKVDNALQSGNSQESVTEQDSKDSTYSLSSTLTLSKADYEKHKVYACEVTHQGLSSPVTKSFNRGECSGGGGSGGGGSEVQLVQSGAEVKKPGSSVKVSCKASGYSFTSYYIHWVRQAPGQCLEWMGRIGPGSGDINYNEKFKGRATFTVDKSTSTAYMELSSLRSEDTAVYYCARFHYDGADWGQGTLVTVSSGGGGSGGGGSGGGGSGGGGSDIQMTQSPSSLSASVGDRVTITCKASQNINENLDWYQQKPGKAPKLLIYYTDILQTGIPSRFSGSGSGTDYTLTISSLQPEDFATYYCYQYYSGYTFGCGTKLEIKRT
notes: also called UCBXXXX; IL-17AF-IL-13 multi-specific antibody
B1 gave a Binding of Mixture as a Percentage of Individual Binding Responses (%), Mean [1] of 97%, a Kd [2] of 0.007 nM and a koff [2] of 1.24e-05 s⁻¹. It also gave a kon [2] of 1.65e+06 M⁻¹ s⁻¹, a Kd [3] of 0.015 nM and a koff [3] of 4.54e-05 s⁻¹. It also gave a kon [3] of 3.7e+06 M⁻¹ s⁻¹, a Kd [4] of 0.283 nM and a koff [4] of 0.000282 s⁻¹. For the same binder, the kon [4] was 1.14e+06 M⁻¹ s⁻¹, the Kd [5] was 2.47 nM and the koff [5] was 0.000204 s⁻¹. It also gave a kon [5] of 81800 M⁻¹ s⁻¹, a Kd [6] of 0.014 nM and a koff [6] of 2.87e-05 s⁻¹. The kon [6] was 2.25e+06 M⁻¹ s⁻¹, the Kd [7] was 2.51 nM and the koff [7] was 0.000154 s⁻¹. For the same binder, the kon [7] was 66500 M⁻¹ s⁻¹, the Kd [8] was 0.009 nM and the koff [8] was 1.57e-05 s⁻¹. It also gave a kon [8] of 2.26e+06 M⁻¹ s⁻¹, a Kd [9] of 0.156 nM and a koff [9] of 0.000148 s⁻¹. For the same binder, the kon [9] was 948000 M⁻¹ s⁻¹, the Kd [10] was 0.128 nM and the koff [10] was 0.000198 s⁻¹. For the same binder, the kon [10] was 1.67e+06 M⁻¹ s⁻¹, the Kd [11] was 0.026 nM and the koff [11] was 3.84e-05 s⁻¹. It also gave a kon [11] of 1.46e+06 M⁻¹ s⁻¹, a Kd [12] of 0.0258 nM and a koff [12] of 0.000111 s⁻¹. The kon [12] was 3.61e+06 M⁻¹ s⁻¹, the “IC50, inhibition of IL-6 release from nHDF stimulated with IL-17A and TNF-α” value [13] was 0.049 nM and the “IC50, inhibition of IL-6 release from nHDF stimulated with IL-17F and TNF-α” value [14] was 34.3 nM. The “IC50, inhibition of IL-6 release from nHDF stimulated with IL-17A and TNF-α” value [15] was 0.042 nM, the “IC50, inhibition of IL-6 release from nHDF stimulated with IL-17F and TNF-α” value [16] was 28 nM and the Kd [17] was 0.0082 nM. For the same binder, the koff [17] was 3.45e-05 s⁻¹, the kon [17] was 3.2e+06 M⁻¹ s⁻¹ and the Binding, n = 1 (RU) [18] was 146 RU. It also gave a Binding, n = 2 (RU) [18] of 141 RU, a Binding, n = 3 (RU) [18] of 145 RU and a Binding of Mixture as a Percentage of Individual Binding Responses (%), n = 1 [19] of 97%. The Binding of Mixture as a Percentage of Individual Binding Responses (%), n = 2 [19] was 96%, the Binding of Mixture as a Percentage of Individual Binding Responses (%), n = 3 [19] was 97% and the Kd [20] was 0.0821 nM. The koff [20] was 0.000219 s⁻¹, the kon [20] was 2.66e+06 M⁻¹ s⁻¹ and the “IC50 for inhibition of STAT6 signalling (HEK 293 Human IL4/IL-13 SEAP reporter cells)” value [21] was 4.12 pM and 0.412 ng/ml. It also gave a Binding of Mixture as a Percentage of Individual Binding Responses (%), Mean [22] of 100%, a Binding, n = 1 (RU) [23] of 81 RU and a Binding, n = 2 (RU) [23] of 131 RU. The Binding, n = 3 (RU) [23] was 129 RU, the “inhibition of CXCL1 release from NHEK treated with a mixture of IL-13, IL-17A and IL-17F” value (“inhibition of CXCL1 release” for short) [24] was 81.3% and the “inhibition of CXCL1 release” value [25] was 81.3%. The “inhibition of CXCL1 release” value [26] was 81.3%, the Binding of Mixture as a Percentage of Individual Binding Responses (%), n = 1 [27] was 100% and the Binding of Mixture as a Percentage of Individual Binding Responses (%), n = 2 [27] was 100%. It also gave a Binding of Mixture as a Percentage of Individual Binding Responses (%), n = 3 [27] of 100%.
